Results on three molecules are retold here after patent US12686712B2, “Antibody, related use, pharmaceutical composition including method for diagnosing fungal infections, fungal infection diagnosis kit and method for treating fungal infections” (priority 2020, dated 2026).

Several values for one entry are separate records, joined by “and”; a condition that tells them apart may be missing. Equal entries are not always repeated.

For assay [1], the system named is C. neoformans. The experiment in a line: Minimum inhibiting concentration (MIC) assay, alone or in association with AmB or FLC. The assay is classed as cell-based, Cryptococcus neoformans. Conditions: 48 hours at 37° C. On the procedure: C. neoformans cells were cultivated in RPMI 1640 buffered with MOPS in pH 7 at 10^5 cell/well density in 96-well plates in 200 μl final volume. Systems were supplemented with AcM at concentration (25 to 0.05 μg/ml), AmB (1 to 0.1 lμg/ml) or FLC (8 to 2 μg/ml), alone or in association. After 48 hours of incubation at 37° C. under agitation, cells were suspended by pipetting for spectrophotometer reading at 592 nm wavelength.
AcMs fungicide activity was tested through CIM test. […] It was assessed if AcMs association with AmB or FLC would trigger antifungal effects in sub-inhibiting concentrations, thus 1 μg/ml concentrations of AmB and 4 and 2 μg/ml to FLC in combination with AcMs different concentrations. To assess whether there was combining effect of AcMs with drug, it was used as drug action base in isolate form.

For the next assay, the system named is C. neoformans strain H99. Put plainly: Survival trial, lethal i.p. challenge. Type of assay: in vivo, Balb/C line mice. As to conditions: AmB standard dose 2.5 mg/kg alone; data not provided. On the procedure:
Balb/C line mice (n=7) were lethally challenged via i.p. with 10^5 cells in PBS of C. neoformans (H99) and treated 2 hours later with 100 μl of AmB (2.5 mg/kg and 0.25 mg/kg), 100 μl of AcM (85 μg/ml) and 100 μl of AcM and AmB combined solution (0.25 mg/kg). Control animals were challenged only by C. neoformans (H99) or only with 100 μl of a solution of PBS, AmB (2.5 mg/kg) or AcM (85 μg/ml) without fungus (adapted from Liedke et al.). Survival rate was achieved and analysis was extended up to 90 days after infection, presenting statistical value with p<0.005.
Mice were lethally challenged with inoculant i.p. of 1×10^5 cells of yeast C. neoformans strain H99. After 2 hours, they were treated with PBS (negative control), 85 μg/animal of AcM (HC6/DD11) in isolate form, 0.25 or 2.5 mg/kg of AmB in isolate form, and in synergic form, AcM keeping test concentrations. Treatments were repeated for another two times, with 10-day interval.

For assay [2], the system named is C. albicans. Put plainly: Biofilm development, XTT reduction trial. Type of assay: cell-based, Candida albicans. As to conditions: AcM 25 μg/ml, 48 hours at 37° C., vs fungus without treatment, p<0.05. On the procedure: (§1) C. neoformans (H99 and Cap67) and Candida albicans were cultivated in Sabouraud media for 24 hours at 30° C. Cellular suspensions were centrifuged for 5 minutes at 3000 g, washed 3 times in PBC and suspended in minimum media (20 mg/ml thiamin, 30 mm glucose, 26 mM glycine, 20 mM MgSO4, and 58.8 mM KH2PO4). Then, they were added to 96-well plates (100 μl/well—1×10^6 células/ml) and cultivated for 48 hours at 37° C. at presence of AcM (HC6/DD11 and AF1/CC5) and AcM anti-GXM 18B7 (only to H99) at 25 μg/ml concentration, keeping under agitation for 30 minutes, for AcM total homogenization with fungi. As control, drug AmB was used at 1 μg/ml concentration.
(§2) Two analysis systems were performed: in the first, cells were washed, so that non-adhering cells were removed and only cells bonded to biofilm under development remained; in the second system, cells were not washed and all cells adhered or not to substrate were quantified.
(§3) Viable cell metabolic activity in both trials was assessed by the method based on decrease of XTT (2-methoxy-4-nitro-5-sulfophenyl)-5-[(phenylamino) carbonyl]-2H-tetrazolium hydroxide) in spectrophotometer at 492 nm of wavelength.
(§4) AcMs were tested (25 μg/ml) against three fungus species (C. albicans, C. neoformans—H99—and acapsular mutant of C. neoformans—Cap67), with control by AcM anti-GXM 18B7 (25 μg/ml) only to H99. In the first assay (FIGS. 14A and B), cellular suspensions were washed to remove non-adhering cells to substrate. […] In second assay (FIGS. 14C and D), cellular suspensions were not washed, and again AcM inhibited biofilm development (p<0.05) compared to cell not treated with antibodies. In both assays, cell growth was observed.
(Formazan colour is commonly taken as a measure of viable cells.)

In assay [3] the test system is C. albicans. The experiment in a line: Indirect ELISA against intact cells using poly-L-Lysine (PL). The assay is classed as binding, Candida albicans. As to conditions: 10^4 and 10^5 cells/ml. On the procedure:
(§5) For this test, C. neoformans (H99), Candida albicans, Giardia lamblia, human lung line cell A549 (ATCC), Escherichia coli and Staphylococcus aureus. Cells were washed in PBS three times and suspended at 10^7 cell/ml density in poly-L-Lysine (5 μg/ml in PBS) for adherence at night at 4° C. The next day, plates were blocked with PBS/BSA 5% and incubated for 1 hour at 37° C., then they are incubated for 1 hour at 37° C. with anti-chitooligomer AcM at 50 μg/ml concentration and diluted at 5 μg/ml. Then, washing with PBS/Tween 0.05% was performed for 3 times and anti-IgM murine peroxidase was added diluted 1:5000 and incubated for 2 hours at 37° C. Plates were washed again and TMB was added and incubated for 30 minutes at 37° C.
(§6) Reaction was stopped with HCl 1 N and reading with spectrophotometer at 450 nm. After this trial, seriated dilutions were performed at density of cells 10^7 until 10 cells/ml to fungi and 10^7 until 10^4 cells/ml to other cellular types and tested of AcM anti-chitooligomer at 25 μg/ml concentration, followed by the same procedures abovementioned. […]
(§7) In this trial, 10^7 cell/ml of C. albicans were used to perform an absorbance curve, in which it was observed that there was a 25 μg/ml concentration reliable signal of both AcM, as above such value the curve starts to enter in plateau, as provided in FIG. 9. […]

The subject of another assay is C. neoformans (H99). Described as above. The assay is classed as binding, Cryptococcus neoformans. Conditions: 10^4 and 10^5 cells/ml. On the procedure: as §5, §6, §7
The subject of assay [4] is acapsular mutant of C. neoformans Cap67. The experiment in a line: Biofilm development, XTT reduction trial. Type of assay: cell-based, Cryptococcus neoformans. As to conditions: AcM 25 μg/ml, 48 hours at 37° C., vs fungus without treatment, p<0.05. On the procedure:
as §1, §2, §3, §4

In a further assay the test system is Candida albicans. The experiment in a line: Immunofluorescence of AcM anti-chitooligomer against intact cells. The assay is classed as binding. Conditions: AcM 25 μg/mL, 1 h at 37° C.; anti-IgM Alexa 568; calcofluor. On the procedure:
Fungal cells (10^6 cells)) were fastened (cacodylate paraformolaldehyde buffer 4%; 30 min) and blocked later (PBS/BSA 1%; 1 hour). Then, they were incubated with AcM anti-chitooligomer(25 μg/mL; 1 h at 37° C.) After washing with PBS, cells were incubated with mouse anti-IgM antibody conjugated at Alexa 568 (SIGMA; 1:1000). After PBS washing, cells were incubated with 25 μM of white calcofluor (Invitrogen) and washed again. Cellular suspensions were assembled in glass blades and assessed under microscope Olympus AX70, coupled to camera system (QImaging Retiga 1300) and assessed in QCapture suite V2.46 software.
From reliable and ELISA and Dot Blot trials, biological activity validation tests. Thus, AcMs were used through immunofluorescence (IF), using the pathogen Candida albicans as template. AcMs were efficient at fungal cellular wall labeling, showing the same profile whenever standard marker is used (lectin), data not provided.

Assay [5] relates to C. neoformans. Put plainly: Melanization trial (L-DOPA). Type of assay: cell-based, Cryptococcus neoformans. On the procedure:
C. neoformans cultivation was performed as paragraph and cellular suspension (1×10^6 cells/ml) was cultivated for 72 hours in minimum media supplemented with 1 mM of L-DOPA in 96-well plate of U-shape bottom. Antibodies HC6/DD11 and AF1/CC5 were added to minimum media within 25 to 0.05 μg/ml concentration range. The plate was centrifuged and pigment development quantification was defined densitometrically upon image scanning by iBright FL1000 Invitrogen equipment.
AcM HC6/DD11 e AF1/CC5 established concentrations were 0.2 to 25 μg/ml. L-DOPA was used with substrate to melanization.
Pigmentation in C. neoformans was assessed through brown to black sedimentation observation in 96-well plate bottom. To document pigmentation or inhibition, plates were photographed over white surfaces (clear bottom), to enable differentiation between pigmented and non-pigmented populations. It shall be noted that every AcM dose presents fungal growth, however with negative pigmentation or partial inhibition.

Another assay concerns C. neoformans H99. Put plainly: Biofilm development, XTT reduction trial. The assay is classed as cell-based, Cryptococcus neoformans. As to conditions: AcM 25 μg/ml, 48 hours at 37° C., vs fungus without treatment, p<0.05. On the procedure:
as §1, §2, §3, §4
AcMs were compared to AcM anti-GXM 18B7 concerning biofilm development inhibition.

As to `C[C@@H]1[C@H](O)[C@@H](C)/C=C/C=C/C=C/C=C/C=C/C=C/C=C/[C@H](O[C@@H]2O[C@H](C)[C@@H](O)[C@H](N)[C@@H]2O)C[C@@H]2O[C@](O)(C[C@@H](O)C[C@@H](O)[C@H](O)CC[C@@H](O)C[C@@H](O)CC(=O)O[C@H]1C)C[C@H](O)[C@H]2C(=O)O` [AmB, amphotericin polyene B, reference compound], the “concentration with fungicide effect (control drug alone)” value in the assay on C. neoformans [1] is 1 µg/mL. In addition, the “death of infected animals” value in the assay on C. neoformans strain H99 was “did not die”.

For the molecule `OC(Cn1cncn1)(Cn1cncn1)c1ccc(F)cc1F` [FLC, Fluconazole], in the assay with C. neoformans [1], the “concentration with fungicide effect (control drug alone)” value is 8 µg/mL.

B1: AF1/CC5: murine IgM monoclonal antibody against chitooligomers (chitotriose); VH SEQ ID NO: 19, VL SEQ ID NO: 20 (antibody, listed as Mus musculus, V domains shown)
VH: STGQVKLEESGGGLVQPGGSMKLSCAASGFTFSDAWMDWVRQSPEKGLEWVAEIRSKANNHATYYAESVKGRFTISRDDSKSSVYLQMNSLRAEDTGIYYCTRHRYDGFDYWGQGTTLTFP
VL: DYFLASQGEVTMTCSASSSISYMHWYQQKPGTSPKRWIYDTSKLASGVPARFSGSGSGTSYSLTISSMEAEDAATYYCHQRSSYPCTFGAGTKLELKRADAAPTVSLETKTS
In the case of B1, the “biofilm development (XTT reduction)” value (in the assay with C. albicans [2] (non-washed cells); in the assay on C. albicans [2] (washed cells); in assay [4] (non-washed cells); in assay [4] (washed cells); in the assay with C. neoformans H99 (non-washed cells); in the assay on C. neoformans H99 (washed cells)) was “reduced biofilm development significantly” each time. The “ELISA signal in cell saturation curve” value with C. albicans [3] and with C. neoformans (H99) was “a plateau to both cells was achieved” each time. In the assay with Candida albicans, the “fungal cellular wall labeling by immunofluorescence” value was “characteristic polar label”. Also, in the assay on C. neoformans [5] (concentrations lower than 1.6 μg/ml, p>0.05), the “melanization in lower concentrations” value was “not significant inhibition”. Besides, the “AcM concentration with partial inhibition of melanization/pigmentation” value with C. neoformans [5] (series 25 to 0.2 μg/ml, 72 hours, 1 mM L-DOPA, p<0.05) was 3.2 µg/mL and 1.6 µg/mL.
